The subject of the assay is human hemoglobin. In words: Proteolysis of human hemoglobin by proteases, fructosyl amino acid detected (Comparative Example 3). In kind it is biochemical. The note with it: 1 mg/mL protease, 37° C. for 30 minutes; assay apparatus 2. Here is the method: FIG. 2 was the flow type assay apparatus for fructosyl amino acid with the dialysis module. The buffer B was pumped out from the buffer tank (24) using the pump (25), and a 100 μL portion of the sample was injected using the valve (4). The protease-immobilized enzyme column (14), the second immobilized enzyme column (19), the electrode for hydrogen peroxide (20) and the flow type calorimeter (16) were not disposed. The fructosyl amino acid oxidase-immobilized column was placed in the first immobilized enzyme column (17). The injected sample transferred with the flowing buffer B, was carried to the dialysis module (27) in the incubator (13), and only the components with low molecular weight in the sample were permeated through the regenerated cellulose membrane with the membrane thickness of 20 μm and molecular weight cut off of 12000 to 14000 to a detection system (17, 18) of the fructosyl amino acid. Since the buffer A was pumped out from the buffer tank (1) by the pump (2), the components with low molecular weight in the sample dialyzed by the dialysis module passed through the fructosyl amino acid oxidase-immobilized column (17) and the electrode for hydrogen peroxide (18), and hydrogen peroxide produced from the fructosyl amino acid in the sample was detected. […]

B1: Proteinase K: protease from Tritirachium album, Sigma-Aldrich Co. (protein, UniProt P06873 106-384, looked up)
Proteinase K: AAQTNAPWGLARISSTSPGTSTYYYDESAGQGSCVYVIDTGIEASHPEFEGRAQMVKTYYYSSRDGNGHGTHCAGTVGSRTYGVAKKTQLFGVKVLDDNGSGQYSTIIAGMDFVASDKNNRNCPKGVVASLSLGGGYSSSVNSAAARLQSSGVMVAVAAGNNNADARNYSPASEPSVCTVGASDRYDRRSSFSNYGSVLDIFGPGTSILSTWIGGSTRSISGTSMATPHVAGLAAYLMTLGKTTAASACRYIADTANKGDLSNIPFGTVNLLAYNNYQA
B1: the “Result (detected value of the fructosyl amino acid after proteolysis)” value is “C (the detected value of less than 20 pA)”.

(Values after US8128802B2, “Analysis apparatus and analysis method for glycosylated hemoglobin” (OJI Paper Co., Ltd, priority 2005, dated 2012).)
